Substitutions are numbered along the chain they refer to. In names and notes the source's numbering stands.
T1: KRAS G12D peptide on HLA-A*11:01 (human)
T1 peptide: VVGADGVGK

T2: KRAS G12V peptide on HLA-A*11:01 (human)
T2 peptide: VVVGAVGVGK

T3: KRAS G12D peptide on HLA-A*11:01 (human)
T3 peptide: VVVGADGVGK

T4: KRAS wild type peptide on HLA-A*11:01 (human)
T4 peptide: VVVGAGGVGK

T5: KRAS G12V peptide on HLA-A*11:01 (human)
T5 peptide: VVGAVGVGK

T6: KRAS wild type peptide on HLA-A*11:01 (human)
T6 peptide: VVGAGGVGK

T7: KRAS G12D peptide on HLA-A*11:01 (human)
T7 peptide: VVVGADGVG

B1: TRAV19*01/TRBV13-1*02 murine anti-KRAS G12V TCR (SEQ ID NOs: 145 and 146) (TCR, V domains shown)
Valpha: GQQVKQSSPSLTVQEGGILILNCDYENDMFDYFAWYKKYPDNSPTLLISVRSNVDKREDGRFTVFLNKSGKHFSLHITASQPEDTAVYLCAAGDSGGSNYKLTFGKGTLLTVTP
Vbeta: EAAVTQSPRNKVTVTGGNVTLSCRQTNSHNYMYWYRQDTGHGLRLIHYSYGAGNLQIGDVPDGYKATRTTQEDFFLLLELASPSQTSLYFCASASWGGYAEQFFGPGTRLTVL
B2: TRAV4-4/DV10*01/BV12-2*01 murine anti-KRAS G12D TCR (SEQ ID NOs: 157 and 158) (TCR, V domains shown)
Valpha: GDQVEQSPSALSLHEGTDSALRCNFTTTMRSVQWFRQNSRGSLISLFYLASGTKENGRLKSAFDSKERRYSTLHIRDAQLEDSGTYFCAADSSNTGYQNFYFGKGTSLTVIP
Vbeta: NSGVVQSPRYIIKGKGERSILKCIPISGHLSVAWYQQTQGQELKFFIQHYDKMERDKGNLPSRFSVQQFDDYHSEMNMSALELEDSAVYFCASSLTDPLDSDYTFGSGTRLLVI
B3: TRAV12N-3*01 + TRBV5*01 (TCR)
Valpha: GDSVTQTEGLVTLTEGLPVMLNCTYQTIYSNPFLFWYVQHLNESPRLLLKSFTDNKRTEHQGFHATLHKSSSSFHLQKSSAQLSDSALYYCALRGNAGAKLTFGGGTRLTVRP
beta TRBV5*01 2*01/2-1*01 CDR3: CASSQDSLGRAEQFF
B4: TRAV16D/DV11*03 + TRBV5*01 (TCR)
alpha TRAV16D/DV11*03 52*01 CDR3: CAMREDTGANTGKLTF
beta TRBV5*01 2*01/2-1*01 CDR3: CASSQDSLGRAEQFF
B5: TRAV3-3*01 + TRBV13-1*02 (TCR, V domains shown)
Valpha: GEQVEQRPPHLSVREGDSAVITCTYTDPNSYYFFWYKQEPGASLQLLMKVFSSTEINEGQGFTVLLNKKDKRLSLNLTAAHPGDSAAYFCAVSGGTNSAGNKLTFGIGTRVLVRP
Vbeta: B1 Vbeta
B6: TRAV12N-3*01/BV4*01 murine anti-KRAS G12D TCR (SEQ ID NOs: 11 and 12) (TCR, V domains shown)
Valpha: B3 Valpha
Vbeta: ETAVFQTPNYHVTQVGNEVSFNCKQTLGHDTMYWYKQDSKKLLKIMFSYNNKQLIVNETVPRRFSPQSSDKAHLNLRIKSVEPEDSAVYLCASSSRDWSAETLYFGSGTRLTVL
B7: TRAV3-3*01/TRBV4*01 murine anti-KRAS G12V TCR (SEQ ID NOs: 133 and 134) (TCR, V domains shown)
Valpha: B5 Valpha
Vbeta: ETAVFQTPNYHVTQVGNEVSFNCKQTLGHDTMYWYKQDSKKLLKIMFSYNNKQLIVNETVPRRFSPQSSDKAHLNLRIKSVEPEDSAVYLCASSRDWGPAEQFFGPGTRLTVL
B8: TRAV16D/DV11*03 + TRBV4*01 (TCR)
alpha TRAV16D/DV11*03 52*01 CDR3: CAMREDTGANTGKLTF
Vbeta: B6 Vbeta
B9: TRAV19*01 + TRBV4*01 (TCR, V domains shown)
Valpha: B1 Valpha
Vbeta: B7 Vbeta
B10: Substituted TRAV4-4/DV10*01/BV12-2*01 (CDR3alpha G112A) (SEQ ID NOs: 209 and 158) (TCR, V domains shown)
Valpha: B2 Valpha with G96A
Vbeta: B2 Vbeta

Key:
Experiment in all cases: cytokine release
[1] = molecular target: T1, KRAS G12D peptide on HLA-A*11:01
[2] = molecular target: T2, KRAS G12V peptide on HLA-A*11:01
[3] = molecular target: T3, KRAS G12D peptide on HLA-A*11:01
[4] = molecular target: T4, KRAS wild type peptide on HLA-A*11:01
[5] = molecular target: T5, KRAS G12V peptide on HLA-A*11:01
[6] = molecular target: T6, KRAS wild type peptide on HLA-A*11:01
[7] = molecular target: T7, KRAS G12D peptide on HLA-A*11:01

Row | Binder | binding result [1] | binding result [2] | binding result [3] | binding result [4] | binding result [5] | binding result [6] | binding result [7]
1 | B1 | no recognition | recognises | no recognition | no recognition | no recognition | – | –
2 | B2 | no recognition | no recognition | – | no recognition | – | no recognition | –
3 | B3 | – | no recognition | no recognition | no recognition | – | – | –
4 | B4 | – | no recognition | – | no recognition | – | – | –
5 | B5 | – | no recognition | no recognition | no recognition | – | – | –
6 | B6 | no recognition | no recognition | recognises | no recognition | – | no recognition | no recognition
7 | B7 | no recognition | recognises | no recognition | no recognition | – | – | –
8 | B8 | – | no recognition | – | no recognition | – | – | –
9 | B9 | – | no recognition | no recognition | no recognition | – | – | –
10 | B10 | – | – | recognises | – | – | – | –

— US20250263462A1 (published 2025)
